According to the Human Domainome abundance scans (Beltran et al. 2025):

B1: SWI/SNF complex subunit SMARCC1, residues 620 to 663; numbered along this chain, Q92922 (parent)
chain: GREWTEQETLLLLEALEMYKDDWNKVSEHVGSRTQDECILHFLR

Variants of: B1
Assay: abundance fitness (aPCA) (normalised: wild type 0, dead -1); higher = more abundant; growth selection in yeast, the domain comes from the species named
Settings: Homo sapiens

Abundance fitness of substitutions, site by site:
R33: C -0.944; N -0.884; H -0.251; T -0.464; P -0.653; E -0.319; G -0.569; A -0.285; W -0.404; L -0.832; S -0.678; K 0.037; Y -0.744; Q -1.01
D36: C -0.126; R -0.017; Y -0.374; W -0.299; Q 0.041; G 0.039; V -0.354; P -0.083; F -0.327; T -0.042; M -0.375; I -0.342; H -0.092; S 0.021; E -0.002; A -0.034; L -0.383
H41: C -0.089; K 0.223; T -0.161; G -0.407; M -0.187; Y 0.184; F -0.189; L -0.247; W -0.142; S -0.357; I -0.537; Q -0.21; A 0.064; N 0.097; R -0.019; E -0.178
Q35: E -0.075; Y -0.166; D 0.05; S 0.073; K 0.261; L -0.077; G 0.056; C 0.079; A -0.038; T 0.044; I -0.186; N 0.063; V -0.017; P -0.136; H 0.012; W -0.336; M -0.061
E28: R -0.013; W 0.08; M -0.8; Q -0.181; L -0.31; N -0.21; Y -0.404; V -0.311; T -0.084
L40: D 0.319; C 0.108; Y 0.213; H 0.201; A 0.28; K 0.171; F -0.074; S 0.266; I -0.138; G 0.049; P -0.299; E 0.122; M 0.057; Q 0.204; R 0.157; N 0.135; W 0.326; T 0.206
L43: G 0.342; E 0.582; V 0.209; D 0.587; C 0.187; H 0.514; T 0.584; Q 0.645; P 0.302; I 0.098; S 0.338; A 0.286; W 0.076; F 0.149; K 0.554; R 0.507; M 0.184; Y 0.126
F42: M -0.2; Y 0.349; A 0.053; N 0.429; K 0.592; G 0.307; W 0.401; E 0.767; R 0.337; V -0.134; C -0.286; P 0.405; L -0.29; T -0.007; S 0.25
V30: G -0.792; E -1.18; Y -1.05; H -1.1; Q -0.764; M -0.019; N -0.79; S -0.757; A -0.97; R -0.847; C -0.277; P -0.635; L -0.131; T -0.419
T34: P -0.222; N 0.075; V -0.119; Q 0.199; K 0.165; R 0.137; Y -0.715; L -0.257; D -0.036; F -0.783; E 0.314; G 0.03; I -0.4; W -0.416
C38: M -1.09; P -0.73; A -0.572; R -0.367; Q -0.514; D -0.296; L -0.5; I -0.361; T -0.4; S -0.624; Y -0.903; G -0.778; W -0.79; H -0.774; V -0.348
